Assay results taken from paper doi:10.1101/2023.12.11.571162, “Single molecule studies of the native hair cell mechanosensory transduction complex” (bioRxiv, 2023).

B1: recombinant protocadherin-15 (PCDH15), Mus musculus, His-tagged construct co-expressed with LHFPL5 (natural protein)
chain: not shown
notes: Synthesised by Genscript, cloned into pEG BacMam; also called recombinant PCDH15; His-tagged PCDH15; source: HEK293 tsa201 cells, BacMam co-infection with LHFPL5, purified as a complex (Strep-Tactin, TALON, SEC) in digitonin
B2: native protocadherin-15 (PCDH15) from mouse cochlea or utricle (natural protein)
chain: not shown
notes: protocadherin-15, mouse, endogenous in cochlea and utricle; also called native PCDH15; source: endogenous, cochlea or utricle of post-natal day 6 mice, detergent supernatant (1% C12M, 0.2% CHS)

What was measured:
[1] = molecular target: the molecule itself; experiment: single molecule pull-down (SiMPull), photobleaching step counting; purified recombinant PCDH15/LHFPL5 complex captured by mAb 8D1; labelled in separate experiments with 39G7 Fab-GFP or anti-LHFPL5 Fab-GFP; bleaching steps counted
[2] = molecular target: the molecule itself; experiment: single molecule pull-down (SiMPull), photobleaching step counting; native complexes from mouse cochlea supernatant captured by mAb 8D1; labelled with 39G7 Fab-GFP or anti-LHFPL5 Fab-GFP; bleaching steps counted

Row | Protein | stoichiometry N [1] | stoichiometry N [2]
1 | B1 | 2 | 
2 | B2 |  | 2
